Here are results for 30 sequences from the nanobody polyreactivity screen of Harvey et al. (2022).

This data set can be described thus: yeast display, Sf9 membrane polyspecificity reagent, FACS + sequencing; frameworks hold sequencing errors. Put shortly:
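Sorting gates, low and high (top ~1%), were placed on anti-HA fluorescence to track expression and on streptavidin fluorescence to track reagent binding. A clone's polyreactivity label is taken from the gate it came out of. The reagent was 10% biotinylated, detergent-solubilized Sf9 membrane, applied for 1 hour at 4 °C to galactose-induced yeast display cells.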
Turning to “QVQLVESGGGLVQAGGSLRLSCAASGSIFVSYAMGWYRQAPGKERELVAAIRRGGTSTYYEDSVKGRFTISRDNAKNTVYLQMNSLKPEDTAVYYCAAPRYFTRYRPLGIYDYWGQGTQVTVSS”, the “polyreactivity (PSR sort gate)” value is “high polyreactivity”.

Consider “QVQLVESGGGLVQAGGSLRLSCAASGSIFVTNAMGWYRQAPGKERELVAAIRWSGDSTYYADSVKGRFTISRDNAKNTVYLQMKSLKPEDTAVYYCDAESFRYIRLNYKYGDYYWGHGTQVTVSS”, for which the “polyreactivity (PSR sort gate)” value is “high polyreactivity”.

In the case of “QVQLVESGGGLVQAGGSLRLSCAASGSIFVTNAMGWYRQAPGKERELVAAITRGGNTNYADSVKGRFTISRDNAKNTVYLQMNSLKPEDTAVYYCAADTSYYYVYGYFPGYYYWGLGTQVTVSS”, the “polyreactivity (PSR sort gate)” value is on record as “low polyreactivity”.

In the case of “QVQLVESGGGLVQAGGSLRLSCAASGSIFVTYALGWYRQAPGKERELVAAINSGGRTNYADSVKGRFTISRDNAKNTVYLQMNSLKPEDTAVYYCAATGRYFYPYYRYDYWGQGTQVTVSS”, the “polyreactivity (PSR sort gate)” value was “low polyreactivity”.

For “QVQLVESGGGLVQAGGSLRLSCAASGSIFVTYAMGWYRPAPGKERELVAAISTSGGSTYADSVKGRFTISRDNAKNTVYLQMNSLKPVDTAVYYCNADDPGYAVPWYWFKYDYWGQGTQVTVSS”, the “polyreactivity (PSR sort gate)” value was “low polyreactivity”.

Take “QVQLVESGGGLVQAGGSLRLSCAASGSIFVTYAMGWYRQAPGKERELVAAISTSGGSTYADSVKGRFTISRDNAKNTVYLQMNSLKPEDTAVYYCNADDPGYAVPWYWFKYDYWGQGTQVTVSS”: the “polyreactivity (PSR sort gate)” value was “low polyreactivity”.

For “QVQLVESGGGLVQAGGSLRLSCAASGSIFVVNAMGWYRQAPGKERELVAAIDWSDGGTYYADSVKGRFTISRDNAKNTVYLQMNSLKPEDTAVYYCATVRYVQITRDDYWGQGTQVTVSS”, the “polyreactivity (PSR sort gate)” value was “low polyreactivity”.

Regarding “QVQLVESGGGLVQAGGSLRLSCAASGSIFVVYAMGWYRPAHGKERELVAAIDSGGSTYYADSVKGRFTISRDNAKNTVYLQMNSMKTEDTAVYYCAADIYYYLWGLYYWGQGTQVTVSS”, the “polyreactivity (PSR sort gate)” value is given as “low polyreactivity”.

Consider “QVQLVESGGGLVQAGGSLRLSCAASGSIFVVYAMGWYRQAPGKERELVASIRTGGSTNYADSVKGRFTISRDNAKNTVYLQMNSLKPEDTAVYYCAAASWNSKRHYYVARYYYWGQGTQVTVSS”, for which the “polyreactivity (PSR sort gate)” value is listed as “high polyreactivity”.

Turning to “QVQLVESGGGLVQAGGSLRLSCAASGSIFVVYAMGWYRQPPGKERELVAAIDSGGSTYYADSVKGRFTISRDNAKNTVYLQLNSLKPEDTAVSYCADDGSTWGDYRTYGYWGQGTQVTVSS”, the “polyreactivity (PSR sort gate)” value is “low polyreactivity”.

Regarding “QVQLVESGGGLVQAGGSLRLSCAASGSIFVVYTMGWYRQAPGKERELVAAITQNGGSSTYYADSVKGRFTISRDNAKNTVYLQMNSLKPEDTAVYYCNKDILSPVVRIFKYGYDMDYWGQGTQVTVSS”, the “polyreactivity (PSR sort gate)” value is “low polyreactivity”.

Consider “QVQLVESGGGLVQAGGSLRLSCAASGSIFVWYAMGRYRQAPGQERELVARITSGGRTNYADSVKGRFTISRDNAKNTVYLQMISLKPEDTAVYYCAAGRVSWSPDYYWGQGTQGTVSS”, for which the “polyreactivity (PSR sort gate)” value is reported as “high polyreactivity”.

In the case of “QVQLVESGGGLVQAGGSLRLSCAASGSIFVYNAMGWYRQAPGKEMELVAAISTSGGRTYYADSVKGRFTISRDNAKNTVYLQMNSLKTEDTAVYYCNALGYWRRVVDGFDYWGQGTQVTVSS”, the “polyreactivity (PSR sort gate)” value is “high polyreactivity”.

In the case of “QVQLVESGGGLVQAGGSLRLSCAASGSIFVYNAMGWYRQAPGKERELVAAISSSGGSTYYADSVKGRFTISRDNAKNTVYLQMNSLKPEDTAVYYCAAEAVRKVPSYYSYAYYYWGQGTQVTVSS”, the “polyreactivity (PSR sort gate)” value was “high polyreactivity”.

For the sequence “QVQLVESGGGLVQAGGSLRLSCAASGSIFVYNAMGWYRQAPGKERELVAAITNGGSTNYADSVKGRFTISRDNAKNTVYLQMNSLNPEDTAVYYCAARRYTSAVWWRPRHYYWGQGTQVTVSS”, the “polyreactivity (PSR sort gate)” value was “high polyreactivity”.

Consider “QVQLVESGGGLVQAGGSLRLSCAASGSIFVYNAMGWYRQAPGKERELVAGITFIGGSTYYADSVKGRFTISRDNPKNTVYLQMNSLKPEDTAVYYCNADVAPGIFYGYDSWGQGTQVTVSS”, for which the “polyreactivity (PSR sort gate)” value is “low polyreactivity”.

Take “QVQLVESGGGLVQAGGSLRLSCAASGSIFVYNAMGWYRQAPGKEWELVAAISFSGGDTYYADSVKGRFTISRDNAKNTVYLQMNSLKPEDTAVYYCNVDNSEYEGDYWGQGTQVTVSS”: the “polyreactivity (PSR sort gate)” value is reported as “low polyreactivity”.

For the sequence “QVQLVESGGGLVQAGGSLRLSCAASGSIFVYNTMAWYRPAPVKERELVAAISSSGGSTYYADSVKGRFTISRDNAKNTVYLQMNSLKPEDTAVYYCAKGPLYSLFFQLDAPYRYGYWGQGTQVTVSS”, the “polyreactivity (PSR sort gate)” value was “low polyreactivity”.

As for “QVQLVESGGGLVQAGGSLRLSCAASGSIFVYYAMGWYRQAPGKERELVAAISQRGGRTYYADSVKGRFTISRDNAKNTVYLQMNSLKPEDTAVYYCAARAWTRSVPYGFYYWGQGTQVTVSS”, the “polyreactivity (PSR sort gate)” value is listed as “high polyreactivity”.

Regarding “QVQLVESGGGLVQAGGSLRLSCAASGSIFVYYAMGWYRQAPGKERELVAAISSRGGRTYYADSVKGRFTISRDNAKNTVYLQMNSLKPEDTAVYYCAAVSSRLWLYDYWGQGTQVTVSS”, the “polyreactivity (PSR sort gate)” value was “high polyreactivity”.

With “QVQLVESGGGLVQAGGSLRLSCAASGSIFVYYAMGWYRQAPGKERELVAAISSTGGRTYYADSVKGRFTISRDNAKNTVYLQMNSLNPEDTAVYYCAKDYGSYFIFLSYPRSRYDYWGQGTQVTVSS”, the “polyreactivity (PSR sort gate)” value is on record as “low polyreactivity”.

Turning to “QVQLVESGGGLVQAGGSLRLSCAASGSIFVYYAMGWYRQAPGKERELVAAITWSSGRTYYADSVKGRFTISRDNAKNTVYLQMNSLKPEDTAVYYWNVLTRYYLGYDYWGQGTQVTVSS”, the “polyreactivity (PSR sort gate)” value is “high polyreactivity”.

For the sequence “QVQLVESGGGLVQAGGSLRLSCAASGSIFVYYGMGWYRQAPGKERELFAAISSGGSTHYADSVKGRFTISRDNAKNTVYLQMNSLKPEDTAVYYCAADRFFWLRSYPRYYYWGQGTQVTVSS”, the “polyreactivity (PSR sort gate)” value is reported as “low polyreactivity”.

For the sequence “QVQLVESGGGLVQAGGSLRLSCAASGSIFVYYTMGWYRQAPGKERELVASITSGGNTNYADSVKGRFTISRDNAKNTVYLQMNSLKPEDTAVYYCAADYQTVTQADWGTVYDYDYWGQGTQVTVSS”, the “polyreactivity (PSR sort gate)” value was “low polyreactivity”.

Turning to “QVQLVESGGGLVQAGGSLRLSCAASGSIFWANAKGWYRQAPGKERELVATITSGGRTYYADSVKGRFTISRDNAKNTVYLQMNSLKPEDTAVYYCARVPPQYRWGRRLVYVHVDYWGQGTQVTVSS”, the “polyreactivity (PSR sort gate)” value is recorded as “low polyreactivity”.

Consider “QVQLVESGGGLVQAGGSLRLSCAASGSIFWANAMGWYRQAPGKERELVASISSGGSTNYADSVKGRFTISRDNAKNTVYLQMNSLKPEDTAVYYCAADYSHSYIGYDYWGQGTQVTVSS”, for which the “polyreactivity (PSR sort gate)” value is listed as “low polyreactivity”.

As to “QVQLVESGGGLVQAGGSLRLSCAASGSIFWEYAMGWYRQAPGKDREFVATISARGGRTYYADSVKGRFTSSRDNAKNTVYLQMNSLKPDATAVYYCANVGVFHLRDNYRFDYWGQGTQVTVSS”, the “polyreactivity (PSR sort gate)” value is listed as “low polyreactivity”.

On to “QVQLVESGGGLVQAGGSLRLSCAASGSIFWFKAMGWYRQAPGKERELVATIRYSGGSTYYADSVKGRFTISRDNEKNTVYLQRNSMKPEDTAVYYCAADAVGDGHNDYWGLGTQVTVSS”, for which the “polyreactivity (PSR sort gate)” value is recorded as “high polyreactivity”.

Consider “QVQLVESGGGLVQAGGSLRLSCAASGSIFWIYAMVWSRQAPGKERELVAVISDRGARTYYADSVKGRFTLSRDNAKNTVYLQMNSLKPEDTAVYYCNADTRQARLQKMDSWGQGTQVTVSS”, for which the “polyreactivity (PSR sort gate)” value is “high polyreactivity”.

Consider “QVQLVESGGGLVQAGGSLRLSCAASGSIFWNYTMGWYRPAPGKERELVAAITWSGSSTYYADSVKGRFTISRDNAKNTVYLQMNSLKPEDTAVYYCAKDGSGTYEFDYWGQGTQVTVSS”, for which the “polyreactivity (PSR sort gate)” value is “low polyreactivity”.
